The values below come from paper PMC5772683.

In general, Kd refers to the constant that tells how readily two partners part at equilibrium. A higher Kd goes with a looser complex.

For this assay, the target named is microtubules (MTs) assembled from bovine brain tubulin (bovine) (UniProt Q6B856). Nature of the assay: co-sedimentation.

Turning to “human Profilin-1 (PFN1), wildtype (from UniProt P07737 1-140) (natural protein)”, the Kd is 10.7 µM.
